Laboratory results published in patent US7657380.

The binders below were run against T1, human CD30 (commercial, conjugated to digoxigenin) (human, UniProt P28908 19-379, limits assumed, conjugated to digoxigenin (DIG)) (assay: AlphaScreen competition).
T1 sequence (looked up): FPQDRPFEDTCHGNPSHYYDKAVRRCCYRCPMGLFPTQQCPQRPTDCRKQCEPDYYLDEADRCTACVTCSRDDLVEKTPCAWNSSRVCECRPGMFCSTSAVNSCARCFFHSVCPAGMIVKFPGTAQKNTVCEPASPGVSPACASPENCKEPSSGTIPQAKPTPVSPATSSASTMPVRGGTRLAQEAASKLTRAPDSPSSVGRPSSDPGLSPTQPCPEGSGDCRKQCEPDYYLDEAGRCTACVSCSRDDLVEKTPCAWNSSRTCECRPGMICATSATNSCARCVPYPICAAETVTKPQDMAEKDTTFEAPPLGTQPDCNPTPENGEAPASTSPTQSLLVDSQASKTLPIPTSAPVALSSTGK

Binder	Fold IC50 vs H3/L3 [fold]
AC10 H3/L3.41 (antibody, IgG1, name in Kabat numbering, V domains shown) VH: QIQLVQSGPEVKKPGASVKVSCKASGYTFTDYYITWVRQAPGQGLEWMGWIYPGSGNTKYNEKFQGRFVFSVDTSASTAYLQISSLKAEDTAVYFCANYGNYWFAYWGQGTLVTVSS VL: DIVLTQSPDSLAVSLGERATINCKASQSVDFDGDSYMNWYQQKPGQPPKVLIYAASNLETGIPARFSGSGSGTDFTLTINSLEAEDAATYYCQQSNEDPWTFGGGTKVEIK	1.8
AC10 H3/L3.42 (antibody, IgG1, name in Kabat numbering, V domains shown) VH: QIQLVQSGPEVKKPGASVKVSCKASGYTFTDYYITWVRQAPGQGLEWMGWIYPGSGNTKYNEKFQGRFVFSVDTSASTAYLQISSLKAEDTAVYFCANYGNYWFAYWGQGTLVTVSS VL: DIVLTQSPDSLAVSLGERATINCKASQSVDFDGDSYMNWYQQKPGQPPKVLIYAASNLESGVPARFSGSGSGTDFTLTINSLEAEDAATYYCQQSNEDPWTFGGGTKVEIK	1.55
AC10 H3/L3.43 (antibody, IgG1, name in Kabat numbering, V domains shown) VH: QIQLVQSGPEVKKPGASVKVSCKASGYTFTDYYITWVRQAPGQGLEWMGWIYPGSGNTKYNEKFQGRFVFSVDTSASTAYLQISSLKAEDTAVYFCANYGNYWFAYWGQGTLVTVSS VL: DIVLTQSPDSLAVSLGERATINCKASQSVDFDGDSYMNWYQQKPGQPPKVLIYAASNLESGIPDRFSGSGSGTDFTLTINSLEAEDAATYYCQQSNEDPWTFGGGTKVEIK	1.16
AC10 H3/L3.44 (antibody, IgG1, name in Kabat numbering, V domains shown) VH: QIQLVQSGPEVKKPGASVKVSCKASGYTFTDYYITWVRQAPGQGLEWMGWIYPGSGNTKYNEKFQGRFVFSVDTSASTAYLQISSLKAEDTAVYFCANYGNYWFAYWGQGTLVTVSS VL: DIVLTQSPDSLAVSLGERATINCKASQSVDFDGDSYMNWYQQKPGQPPKVLIYAASNLESGIPSRFSGSGSGTDFTLTINSLEAEDAATYYCQQSNEDPWTFGGGTKVEIK	1.08
AC10 H3/L3.48 (antibody, IgG1, name in Kabat numbering, V domains shown) VH: QIQLVQSGPEVKKPGASVKVSCKASGYTFTDYYITWVRQAPGQGLEWMGWIYPGSGNTKYNEKFQGRFVFSVDTSASTAYLQISSLKAEDTAVYFCANYGNYWFAYWGQGTLVTVSS VL: DIVLTQSPDSLAVSLGERATINCKASQSVDFDGDSYMNWYQQKPGQPPKVLIYAASNLESGIPARFSGSGSGTDFTLTINSLEAEDAATYYCQQGNEDPWTFGGGTKVEIK	0.29
AC10 H3/L3.49 (antibody, IgG1, name in Kabat numbering, V domains shown) VH: QIQLVQSGPEVKKPGASVKVSCKASGYTFTDYYITWVRQAPGQGLEWMGWIYPGSGNTKYNEKFQGRFVFSVDTSASTAYLQISSLKAEDTAVYFCANYGNYWFAYWGQGTLVTVSS VL: DIVLTQSPDSLAVSLGERATINCKASQSVDFDGDSYMNWYQQKPGQPPKVLIYAASNLESGIPARFSGSGSGTDFTLTINSLEAEDAATYYCQQHNEDPWTFGGGTKVEIK	0.01
AC10 H3/L3.50 (antibody, IgG1, name in Kabat numbering, V domains shown) VH: QIQLVQSGPEVKKPGASVKVSCKASGYTFTDYYITWVRQAPGQGLEWMGWIYPGSGNTKYNEKFQGRFVFSVDTSASTAYLQISSLKAEDTAVYFCANYGNYWFAYWGQGTLVTVSS VL: DIVLTQSPDSLAVSLGERATINCKASQSVDFDGDSYMNWYQQKPGQPPKVLIYAASNLESGIPARFSGSGSGTDFTLTINSLEAEDAATYYCQQLNEDPWTFGGGTKVEIK	0.02
AC10 H3/L3.51 (antibody, IgG1, name in Kabat numbering, V domains shown) VH: QIQLVQSGPEVKKPGASVKVSCKASGYTFTDYYITWVRQAPGQGLEWMGWIYPGSGNTKYNEKFQGRFVFSVDTSASTAYLQISSLKAEDTAVYFCANYGNYWFAYWGQGTLVTVSS VL: DIVLTQSPDSLAVSLGERATINCKASQSVDFDGDSYMNWYQQKPGQPPKVLIYAASNLESGIPARFSGSGSGTDFTLTINSLEAEDAATYYCQQYNEDPWTFGGGTKVEIK	0.02
AC10 H3/L3.53 (antibody, IgG1, name in Kabat numbering, V domains shown) VH: QIQLVQSGPEVKKPGASVKVSCKASGYTFTDYYITWVRQAPGQGLEWMGWIYPGSGNTKYNEKFQGRFVFSVDTSASTAYLQISSLKAEDTAVYFCANYGNYWFAYWGQGTLVTVSS VL: DIVLTQSPDSLAVSLGERATINCKASQSVDFDGDSYMNWYQQKPGQPPKVLIYAASNLESGIPARFSGSGSGTDFTLTINSLEAEDAATYYCQQSSEDPWTFGGGTKVEIK	0.48
AC10 H3/L3.54 (antibody, IgG1, name in Kabat numbering, V domains shown) VH: QIQLVQSGPEVKKPGASVKVSCKASGYTFTDYYITWVRQAPGQGLEWMGWIYPGSGNTKYNEKFQGRFVFSVDTSASTAYLQISSLKAEDTAVYFCANYGNYWFAYWGQGTLVTVSS VL: DIVLTQSPDSLAVSLGERATINCKASQSVDFDGDSYMNWYQQKPGQPPKVLIYAASNLESGIPARFSGSGSGTDFTLTINSLEAEDAATYYCQQSYEDPWTFGGGTKVEIK	0.96
AC10 H3/L3.55 (antibody, IgG1, name in Kabat numbering, V domains shown) VH: QIQLVQSGPEVKKPGASVKVSCKASGYTFTDYYITWVRQAPGQGLEWMGWIYPGSGNTKYNEKFQGRFVFSVDTSASTAYLQISSLKAEDTAVYFCANYGNYWFAYWGQGTLVTVSS VL: DIVLTQSPDSLAVSLGERATINCKASQSVDFDGDSYMNWYQQKPGQPPKVLIYAASNLESGIPARFSGSGSGTDFTLTINSLEAEDAATYYCQQSNKDPWTFGGGTKVEIK	0.27
AC10 H3/L3.56 (antibody, IgG1, name in Kabat numbering, V domains shown) VH: QIQLVQSGPEVKKPGASVKVSCKASGYTFTDYYITWVRQAPGQGLEWMGWIYPGSGNTKYNEKFQGRFVFSVDTSASTAYLQISSLKAEDTAVYFCANYGNYWFAYWGQGTLVTVSS VL: DIVLTQSPDSLAVSLGERATINCKASQSVDFDGDSYMNWYQQKPGQPPKVLIYAASNLESGIPARFSGSGSGTDFTLTINSLEAEDAATYYCQQSNNDPWTFGGGTKVEIK	0.64
AC10 H3/L3.58 (antibody, IgG1, name in Kabat numbering, V domains shown) VH: QIQLVQSGPEVKKPGASVKVSCKASGYTFTDYYITWVRQAPGQGLEWMGWIYPGSGNTKYNEKFQGRFVFSVDTSASTAYLQISSLKAEDTAVYFCANYGNYWFAYWGQGTLVTVSS VL: DIVLTQSPDSLAVSLGERATINCKASQSVDFDGDSYMNWYQQKPGQPPKVLIYAASNLESGIPARFSGSGSGTDFTLTINSLEAEDAATYYCQQSNSDPWTFGGGTKVEIK	0.49
AC10 H3/L3.60 (antibody, IgG1, name in Kabat numbering, V domains shown) VH: QIQLVQSGPEVKKPGASVKVSCKASGYTFTDYYITWVRQAPGQGLEWMGWIYPGSGNTKYNEKFQGRFVFSVDTSASTAYLQISSLKAEDTAVYFCANYGNYWFAYWGQGTLVTVSS VL: DIVLTQSPDSLAVSLGERATINCKASQSVDFDGDSYMNWYQQKPGQPPKVLIYAASNLESGIPARFSGSGSGTDFTLTINSLEAEDAATYYCQQSNEFPWTFGGGTKVEIK	0.02
AC10 H3/L3.62 (antibody, IgG1, name in Kabat numbering, V domains shown) VH: QIQLVQSGPEVKKPGASVKVSCKASGYTFTDYYITWVRQAPGQGLEWMGWIYPGSGNTKYNEKFQGRFVFSVDTSASTAYLQISSLKAEDTAVYFCANYGNYWFAYWGQGTLVTVSS VL: DIVLTQSPDSLAVSLGERATINCKASQSVDFDGDSYMNWYQQKPGQPPKVLIYAASNLESGIPARFSGSGSGTDFTLTINSLEAEDAATYYCQQSNELPWTFGGGTKVEIK	0.46
AC10 H3/L3.63 (antibody, IgG1, name in Kabat numbering, V domains shown) VH: QIQLVQSGPEVKKPGASVKVSCKASGYTFTDYYITWVRQAPGQGLEWMGWIYPGSGNTKYNEKFQGRFVFSVDTSASTAYLQISSLKAEDTAVYFCANYGNYWFAYWGQGTLVTVSS VL: DIVLTQSPDSLAVSLGERATINCKASQSVDFDGDSYMNWYQQKPGQPPKVLIYAASNLESGIPARFSGSGSGTDFTLTINSLEAEDAATYYCQQSNESPWTFGGGTKVEIK	0.57
